Source: patent publication EP3259288B1 (Innate Pharma, dated 2026)

T1: human CD73 expressed at the cell surface (human, UniProt P21589 27-549)
T1 sequence: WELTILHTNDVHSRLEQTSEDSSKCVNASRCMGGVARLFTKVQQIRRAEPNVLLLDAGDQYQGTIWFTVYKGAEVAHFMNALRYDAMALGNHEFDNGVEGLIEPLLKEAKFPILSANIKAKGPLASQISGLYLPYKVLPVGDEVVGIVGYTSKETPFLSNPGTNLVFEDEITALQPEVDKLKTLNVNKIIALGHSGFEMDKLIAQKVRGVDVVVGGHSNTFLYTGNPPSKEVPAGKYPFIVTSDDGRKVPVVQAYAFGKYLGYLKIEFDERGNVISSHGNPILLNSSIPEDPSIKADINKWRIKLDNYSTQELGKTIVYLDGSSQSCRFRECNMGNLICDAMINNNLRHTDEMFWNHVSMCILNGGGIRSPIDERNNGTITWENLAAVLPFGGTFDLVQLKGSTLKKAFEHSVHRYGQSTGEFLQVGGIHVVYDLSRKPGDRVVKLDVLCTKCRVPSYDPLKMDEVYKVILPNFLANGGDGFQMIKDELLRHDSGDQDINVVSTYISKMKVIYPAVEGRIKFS

T2: recombinant human CD73-His extracellular domain recombinant protein (soluble dimer) (human, UniProt P21589 27-547, limits assumed)
T2 sequence: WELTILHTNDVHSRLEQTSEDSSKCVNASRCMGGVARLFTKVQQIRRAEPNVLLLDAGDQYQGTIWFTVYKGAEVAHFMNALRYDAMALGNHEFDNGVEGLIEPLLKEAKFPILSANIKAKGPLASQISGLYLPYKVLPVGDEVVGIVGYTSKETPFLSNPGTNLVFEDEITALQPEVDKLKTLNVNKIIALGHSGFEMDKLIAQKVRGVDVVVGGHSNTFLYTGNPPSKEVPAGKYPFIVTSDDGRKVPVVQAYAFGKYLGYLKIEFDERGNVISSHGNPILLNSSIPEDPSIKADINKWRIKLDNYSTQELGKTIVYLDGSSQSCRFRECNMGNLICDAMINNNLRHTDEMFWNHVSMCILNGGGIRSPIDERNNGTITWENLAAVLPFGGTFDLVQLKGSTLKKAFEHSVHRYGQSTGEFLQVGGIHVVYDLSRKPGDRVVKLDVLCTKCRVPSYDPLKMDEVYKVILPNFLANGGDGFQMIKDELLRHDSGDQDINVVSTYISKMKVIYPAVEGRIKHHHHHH


Columns and labels:
[1] = target: T1, human CD73 expressed at the cell surface; assay: cell-based or functional assay
[2] = target: recombinant human CD73-His extracellular domain recombinant protein (soluble dimer) (human) (UniProt P21589); assay: ELISA, recombinant human CD73 coated at 5 µg/ml, antibody titrated
[3] = target: T1, human CD73 expressed at the cell surface; assay: cell-based or functional assay; remark: listed apart in the source
[4] = target: T2, recombinant human CD73-His …; assay: cell-based or functional assay
[5] = target: T1, human CD73 expressed at the cell surface; assay: cell-based or functional assay; remark: listed apart in the source
[6] = target: T1, human CD73 expressed at the cell surface; assay: cell-based or functional assay; remark: listed apart in the source

Row | Molecule | down-modulation of CD73 expression on MDA-MB-231 cells (10 µg/ml antibody, time course) [1] [%] | EC50 [2] [mg/L] | decrease of enzymatic activity of cellular CD73 (MDA-MB-231) [3] [%] | EC50 for CD73 blockade (enzymatic activity of soluble recombinant human CD73-his, Cell Titer Glo luciferase read-out) [4] [mg/L] | EC50 for neutralization of enzymatic activity of cellular CD73 (MDA-MB-231 cells, free phosphate from AMP hydrolysis, Malachite Green) [5] [mg/L] | EC50 for neutralization of cellular CD73 enzymatic activity, mean over MDA-MB-231, H292 and A375 cells (N=8) [6] [mg/L] | EC70 for neutralization of cellular CD73 enzymatic activity, mean over MDA-MB-231, H292 and A375 cells (N=8) [6] [mg/L] | EC100 for neutralization of cellular CD73 enzymatic activity, mean over MDA-MB-231, H292 and A375 cells (N=8) [6] [µg/mL] | EC50 for neutralization of cellular CD73 enzymatic activity, mean over MDA-MB-231, H292 and A375 cells (N=2) [6] [mg/L]
1 | antibody 11E1 (antibody, V domains shown) VH: EIQLQQSGPELVKPGASVKVSCKASGYAFTSYNMYWVKQSHGKSLEWIGYIDPYNGGTSYNQKFKGKATLTVDKSSSTAYMHLNSLTSEDSAVYYCARGYGNYKAWFAYWGQGTLVTVSA VL: DAVMTQTPKFLLVSAGDRVTITCKASQSVTNDVAWYQQKPGQSPKLLIYYASNRYTGVPDRFTGSGYGTDFTFTISTVQAEDLAVYFCQQDYSSLTFGAGTKLELK | – | – | > 75 | 0.41 | 0.195 | 0.1 | 0.15 | 0.52 | –
2 | antibody 8C7 (antibody, V domains shown) VH: EVQLQQSGPELVKPGASVKVSCKASGYAFASYNMNWVKQSHGKSLDWIGYIDPYNGGSSYNLTFKGKATLTVDKSSTTAYMHLNSLTSEDSAVYYCARGYGNYKAWFAYWGQGTLVTVSA VL: SIVMTPTPKFLLVSAGDRVTITCKASQSVSNDVAWYQQKPGQSPKLLIYYASTRYTGVPDRFTGSGYGTDFTFTISTVQAEDLAVYFCQQDYSSLTFGAGTKLELKR | – | – | > 75 | 1.29 | 0.319 | – | – | – | 0.21
3 | antibody 3C12 (antibody, V domains shown) VH: QIQLQQSGPELVKPGASVKVSCKASGYAFASYNMNWVKQSHGKSLDWIGYIDPYNGGSSYNLTFKGKATLTVDKSSTTAYMHLNSLTSEDSAVYYCARGYGNYKAWFAYWGQGTLVTVSA VL: DVVMTQTPKFLLVSAGDRVTITCKASQSVSNDVAWYQQKPGQSPKLLIYYASTRYTGVPDRFTGSGYGTDFTFTISTVQAEDLAVYFCQQDYSSLTFGAGTKLELKR | – | – | > 75 | 0.41 | 0.21 | 0.14 | 0.18 | 0.3 | –

Second part, the molecule after the results:

Row | down-modulation of CD73 expression on MDA-MB-231 cells (10 µg/ml antibody, time course) [1] [%] | EC50 [2] [mg/L] | decrease of enzymatic activity of cellular CD73 (MDA-MB-231) [3] [%] | EC50 for CD73 blockade (enzymatic activity of soluble recombinant human CD73-his, Cell Titer Glo luciferase read-out) [4] [mg/L] | EC50 for neutralization of enzymatic activity of cellular CD73 (MDA-MB-231 cells, free phosphate from AMP hydrolysis, Malachite Green) [5] [mg/L] | EC50 for neutralization of cellular CD73 enzymatic activity, mean over MDA-MB-231, H292 and A375 cells (N=8) [6] [mg/L] | EC70 for neutralization of cellular CD73 enzymatic activity, mean over MDA-MB-231, H292 and A375 cells (N=8) [6] [mg/L] | EC100 for neutralization of cellular CD73 enzymatic activity, mean over MDA-MB-231, H292 and A375 cells (N=8) [6] [µg/mL] | EC50 for neutralization of cellular CD73 enzymatic activity, mean over MDA-MB-231, H292 and A375 cells (N=2) [6] [mg/L] | Molecule
4 | > 50 | 0.037 | – | – | – | – | – | – | – | antibody 7G2 (Life Technologies Corp.)
5 | – | – | > 75 | 0.33 | 0.209 | 0.13 | 0.19 | 0.68 | – | antibody 6E1 (antibody, V domains shown) VH: EFQLQQSGPELVKPGASVKVSCKASGYAFTSYNMYWVKQSHGKRLEWIGYIDPYNGGSSYNQKFKGKATLTVDKSSSTAYMHLNNLTSEDSAVYYCARGYNNYKAWFAYWGQGTLVTVSA VL: SIVMTQTPKFLLVSAGDRVTITCKASQSVTNDVAWYQQKPGQSPKLLIYYASNRYTGVPDRFTGSGYGTDFTFTISTMQAEDLAVYFCQQDYSSLTFGAGTKLELK
